From PMC3795252, “SLP-76 Sterile α Motif (SAM) and Individual H5 α Helix Mediate Oligomer Formation for Microclusters and T-cell Activation*” (The Journal of Biological Chemistry, 2013)
Where “and” joins values, the source holds several entries; their conditions need not be identical. Equal entries are not always repeated.

What was measured:
[1] = target: the molecule itself; experiment: dynamic light scattering; purified SAM domain at rising concentrations; 25 °C; DynaPro; hydrodynamic radius compared with radii estimated by HYDROPRO and GRAMM-X for monomer, dimer and tetramer; dimer from 10–20 μM, tetramer >50 μM
[2] = target: the molecule itself; experiment: MST; 10 nM NT-647-labelled protein titrated with the same protein unlabelled (0–90.5 μM, 1:1 dilutions); Monolith NT.115; 25 °C; 10 mM HEPES pH 7.5, 500 mM NaCl, 0.5 mM TCEP, 0.05% Tween 20; constant is of monomer to dimer

B1: SLP-76 SAM domain (residues 1–78), recombinant, His-tagged (domain or fragment, human, UniProt Q13094 1-78, looked up)
chain: MALRNVPFRSEVLGWDPDSLADYFKKLNYKDCEKAVKKYHIDGARFLNLTENDIQKFPKLRVPILSKLSQEINKNEER
modifications: NT-647 dye coupled to primary amines on the labelled copy used in MST (one label per protein molecule); the titrated copy is unlabelled
notes: SLP-76 (LCP2), human, N-terminal sterile alpha motif (SAM) domain, residues 1-78 (helices H1-H5); Cloned into the NdeI/BamHI sites of pET-20b(+); also called SLP-76 N-terminal SAM domain; H1–5; source: E. coli BL21(DE3), pET-20b(+), soluble fraction purified by Ni2+ column
In the case of B1, the “stoichiometry N” value [1] is reported as 2 and 4 and the Kd [2] is reported as 2.5 ± 0.9 µM.
